The record followed here is PMC6635525.

This test concerns the target TNF receptor-associated factor 2 (TRAF2) (human (endogenous in HEK293)) (UniProt Q12933).
UniProt Q12933, sequence (Q12933 whole entry, the tested form may be a part): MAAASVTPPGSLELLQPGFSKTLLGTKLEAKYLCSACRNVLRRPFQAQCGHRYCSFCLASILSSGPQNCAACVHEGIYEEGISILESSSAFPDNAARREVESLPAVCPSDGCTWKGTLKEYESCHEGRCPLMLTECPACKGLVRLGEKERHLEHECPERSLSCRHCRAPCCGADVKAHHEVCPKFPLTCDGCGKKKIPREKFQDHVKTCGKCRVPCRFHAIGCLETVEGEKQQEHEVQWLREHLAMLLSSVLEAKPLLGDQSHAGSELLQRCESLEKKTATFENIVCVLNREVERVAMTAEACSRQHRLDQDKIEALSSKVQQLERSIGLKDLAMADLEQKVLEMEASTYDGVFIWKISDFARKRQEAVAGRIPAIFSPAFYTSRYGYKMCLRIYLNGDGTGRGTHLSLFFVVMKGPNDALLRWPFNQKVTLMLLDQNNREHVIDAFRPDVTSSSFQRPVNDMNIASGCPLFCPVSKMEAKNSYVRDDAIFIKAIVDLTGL
As for “GRA15II-51-550 with the deletion AAEE160-163, fused to GFP (from UniProt A0A125YGQ9 51-550) (domain or fragment)”, the NF-κB luciferase reporter activity in transiently transfected HEK293 reporter cells, decrease compared to full-length GRA15II-51–550 was found to be 60%.
Next, “GRA15II-51-550 with the deletion SQQE430-433, fused to GFP (from UniProt A0A125YGQ9 51-550) (domain or fragment)”: 60%.
“GRA15II-51-550 with the deletions AAEE160-163/SQQE430-433, fused to GFP (from UniProt A0A125YGQ9 51-550) (domain or fragment)”: the NF-κB luciferase reporter activity in transiently transfected HEK293 reporter cells, decrease compared to full-length GRA15II-51–550 amounted to 75%.
